± gives the standard deviation of the averaged measurements.
Assay: total protein half-life in vivo (active degradation + dilution); higher = more stable protein
[1] = E. coli NCM3722 delta-clpP delta-lon delta-hslV, growth: N-lim chemostat, doubling time 6 h
[2] = E. coli NCM3722 delta-clpP, growth: N-lim chemostat, doubling time 6 h
[3] = E. coli NCM3722 delta-hslV, growth: N-lim chemostat, doubling time 6 h
[4] = E. coli NCM3722 delta-lon, growth: N-lim chemostat, doubling time 6 h
[5] = E. coli NCM3722 delta-smpB, growth: N-lim chemostat, doubling time 6 h
[6] = wild type E. coli NCM3722, growth: C-lim chemostat, doubling time 3 h
[7] = wild type E. coli NCM3722, growth: C-lim chemostat, doubling time 6 h
[8] = wild type E. coli NCM3722, growth: C-lim chemostat, doubling time 12 h
[9] = wild type E. coli NCM3722, growth: N-lim chemostat, doubling time 6 h
[10] = wild type E. coli NCM3722, growth: N-lim chemostat, doubling time 12 h
[11] = wild type E. coli NCM3722, growth: P-lim chemostat, doubling time 6 h
[12] = wild type E. coli NCM3722, growth: P-lim chemostat, doubling time 12 h

Sequence	total protein half-life in vivo [1]	total protein half-life in vivo [2]	total protein half-life in vivo [3]	total protein half-life in vivo [4]	total protein half-life in vivo [5]	total protein half-life in vivo [6]	total protein half-life in vivo [7]	total protein half-life in vivo [8]	total protein half-life in vivo [9]	total protein half-life in vivo [10]	total protein half-life in vivo [11]	total protein half-life in vivo [12]
MFRQLKKNLVATLIAAMTIGQVAPAFADSADTLPDMGTSAGSTLSIGQEMQMGDYYVRQLRGSAPLINDPLLTQYINSLGMRLVSHANSVKTPFHFFLINNDEINAFAFFGGNVVLHSALFRYSDNESQLASVMAHEISHVTQRHLARAMEDQQRSAPLTWVGALGSILLAMASPQAGMAALTGTLAGTRQGMISFTQQNEQEADRIGIQVLQRSGFDPQAMPTFLEKLLDQARYSSRPPEILLTHPLPESRLADARNRANQMRPMVVQSSEDFYLAKARTLGMYNSGRNQLTSDLLDEWAKGNVRQQRAAQYGRALQAMEANKYDEARKTLQPLLAAEPGNAWYLDLATDIDLGQNKANEAINRLKNARDLRTNPVLQLNLANAYLQGGQPQEAANILNRYTFNNKDDSNGWDLLAQAEAALNNRDQELAARAEGYALAGRLDQAISLLSSASSQVKLGSLQQARYDARIDQLRQLQERFKPYTKM	4.342 ± 0.022 h	5.12 ± 1.1 h	4.86 ± 0.098 h	4.52 ± 0.32 h	4.35 ± 0.05 h	2.7 ± 0.2 h	5.08 ± 0.19 h	9.19 ± 1.1 h	4.73 ± 0.033 h	8.19 ± 1.1 h	3.46 ± 0.47 h	7.12 ± 1.7 h
MKPTSVIIMDTHPIIRMSIEVLLQKNSELQIVLKTDDYRITIDYLRTRPVDLIIMDIDLPGTDGFTFLKRIKQIQSTVKVLFLSSKSECFYAGRAIQAGANGFVSKCNDQNDIFHAVQMILSGYTFFPSETLNYIKSNKCSTNSSTVTVLSNREVTILRYLVSGLSNKEIADKLLLSNKTVSAHKSNIYGKLGLHSIVELIDYAKLYELI [P0AEL8]	5.67 ± 0.072 h											
MKLQKQLLEAVEHKQLRPLDVQFALTVAGDEHPAVTLAAALLSHDAGEGHVCLPLSRLENNEASHPLLATCVSEIGELQNWEECLLASQAVSRGDEPTPMILCGDRLYLNRMWCNERTVARFFNEVNHAIEVDEALLAQTLDKLFPVSDEINWQKVAAAVALTRRISVISGGPGTGKTTTVAKLLAALIQMADGERCRIRLAAPTGKAAARLTESLGKALRQLPLTDEQKKRIPEDASTLHRLLGAQPGSQRLRHHAGNPLHLDVLVVDEASMIDLPMMSRLIDALPDHARVIFLGDRDQLASVEAGAVLGDICAYANAGFTAERARQLSRLTGTHVPAGTGTEAASLRDSLCLLQKSYRFGSDSGIGQLAAAINRGDKTAVKTVFQQDFTDIEKRLLQSGEDYIAMLEEALAGYGRYLDLLQARAEPDLIIQAFNEYQLLCALREGPFGVAGLNERIEQFMQQKRKIHRHPHSRWYEGRPVMIARNDSALGLFNGDIGIALDRGQGTRVWFAMPDGNIKSVQPSRLPEHETTWAMTVHKSQGSEFDHAALILPSQRTPVVTRELVYTAVTRARRRLSLYADERILSAAIATRTERRSGLAALFSSRE	4.81 ± 0.19 h	4.01 ± 1.1 h	2.9 ± 0.19 h	3.33 ± 0.44 h	2.739 ± 0.015 h	2.89 ± 0.43 h	4.39 ± 0.1 h	6.98 ± 0.28 h	2.97 ± 0.079 h	4.37 ± 0.29 h	4.36 ± 0.065 h	7.54 ± 0.6 h
MSRIEAVFFDCDGTLVDSEVICSRAYVTMFQEFGITLDPEEVFKRFKGVKLYEIIDIVSLEHGVTLAKTEAEHVYRAEVARLFDSELEAIEGAGALLSAITAPMCVVSNGPNNKMQHSMGKLNMLHYFPDKLFSGYDIQRWKPDPALMFHAAKAMNVNVENCILVDDSVAGAQSGIDAGMEVFYFCADPHNKPIVHPKVTTFTHLSQLPELWKARGWDITA				2.73 h		2.09 h	4.76 h	9.19 h		2.64 h		
MESPLGSDLARLVRIWRALIDHRLKPLELTQTHWVTLHNIHQLPPDQSQIQLAKAIGIEQPSLVRTLDQLEEKGLISRQTCASDRRAKRIKLTEKAEPLISEMEAVINKTRAEILHGISAEELEQLITLIAKLEHNIIELQAKG [P0A8W2]	5.958 ± 0.04 h	5.81 ± 0.18 h	5.88 ± 0.54 h		5.79 ± 0.084 h	3.38 ± 0.4 h	5.19 ± 0.19 h	11.38 ± 0.033 h	5.01 ± 0.34 h	11 ± 2.7 h	4.64 ± 1.1 h	9.76 ± 0.57 h
MAGKTMIPLLAFAAWSGTGKTTLLKKLIPALCARGIRPGLIKHTHHDMDVDKPGKDSYELRKAGAAQTIVASQQRWALMTETPDEEELDLQFLASRMDTSKLDLILVEGFKHEEIAKIVLFRDGAGHRPEELVIDRHVIAVASDVPLNLDVALLDINDVEGLADFVVEWMQKQNG	4.44 ± 0.4 h	4.61 h	4.37 ± 0.056 h	4.48 ± 0.64 h	3.88 ± 0.7 h	3.22 ± 0.15 h	5.23 ± 0.18 h	9.51 h	4.01 ± 0.23 h	5.54 ± 1.1 h	5.85 h	11 ± 0.32 h
MGKTISIKVLFGIYLLLMAGKVFAFSCNVDGGSSIGAGTTSVYVNLDPVIQPGQNLVVDLSQHISCWNDYGGWYDTDHINLVQGSAFAGSLQSYKGSLYWNNVTYPFPLTTNTNVLDIGDKTPMPLPLKLYITPVGAAGGVVIKAGEVIARIHMYKIATLGSGNPRNFTWNIISNNNVVMPTGGCTVDSRNVTVDLPDFPGSAEIPLGVYCSSEQKLSFYLSGATTDSSRQVFANTAPDATKASGVGVTLMRNGKILATGENVSLGTVNKSKVPLGLSATYGQTGNKVSAGTVQSVIGVTFIYE		5.18 ± 0.35 h			5.306 ± 0.0055 h	2.85 ± 0.12 h	3.09 h	8.385 ± 0.065 h	6.56 h	12.7 ± 0.21 h		

From the supplement of paper PMC11246515
